# According to the nanobody polyreactivity screen of Harvey et al. (2022):
# Experiment: yeast display, Sf9 membrane polyspecificity reagent, FACS + sequencing; frameworks hold sequencing errors
# Method in brief: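 Galactose-induced (36–48 hours) yeast carrying a synthetic nanobody display library were exposed to 10% biotinylated, detergent-solubilized Sf9 membrane reagent at 4 °C for 1 hour. FACS followed streptavidin microbead enrichment, using low and high (top ~1%) gates for expression (anti-HA) and reagent binding (streptavidin). Colony PCR, MiSeq 2 × 250 sequencing and CDR-length filtering followed. Labels for polyreactivity reflect the gate of origin.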
row,Sequence,polyreactivity (PSR sort gate)
1,QVQLVESGGGLVQAGGSLRLSCAASGFIFTKNAIGWYRQAPGKERDLVDAISGTGGSTYYADSVKGRFTISRDNAKNTVYLKMNSLKPEDTAVYYCASRRYRLFSTGGQPGYYWGQGTQVTVSS,high polyreactivity
2,QVHLVESGGGLVQAGGSLRLSCAASGRIFHYNTMGWYRQAPGKERELVAAITSSGGSTYYADSVKGRFTISRDNAKNTVYLQMNSLKPEDTAVYYCNAVFYRYGFKVDYWGQGTQETVSS,high polyreactivity
3,QVQLVESGGGLVQAGGSLRLSCAASGRILFFNAMGWYRQAPGKERELVAAISVSGGSTYYADSVKGRFTISRDNAQNTVYLQMNSLKPEDTAVYYCAKGYDFRRRYDYWGQGTQVTVSS,low polyreactivity
4,QVQLVESGGGLVQAGGSLRLSCAASGRTFENYAMGWYRQAPGKERELVAAISKSGGSTYYADSVKGRFTISRDNAKNTVYLQMNSLKPEDTAVYYCNARPGQSGARFGYWGQGTQVTVSS,high polyreactivity
5,QVQLVESGGGLVQAGGSLRLSCAATGLIFGWYAMGWYRQAPGKERELVAAISYSGGRTYYADSVKGRFTISRDNAKNTVYLQMNSLKPEDSAVYYCAAIVLQLRGRGYEYWGQGTQVTVSS,high polyreactivity
6,QVQLVESGGGLVQAGGSLRLSCAASGNTIDSYGMGWYRQAPGKERELVAAISTSGGSTYYADSVKGRFTISRDNAKNTVYLQMNSLKPEDTAVYYCNATWTMTYDYWGQGTQVTVSS,low polyreactivity
7,QVHLVESGGGLVQAGRSLPLSCAASGRIFIYNAMGWYRQAPGKERELVAAINRSGVSTHYADSVKGRFTISRDNAKNTVYLQMNSLKPEDTAVYYCARTVYGARSYDYWGQGTQVTVSS,low polyreactivity
8,QVQLVESGGGLVQAGGSLRLTCAASGITFYSYAMGWYRQAPGKERELVAAITRSGGSTYYADSVKGRFTISRDNAKNTVYLQMNSLKPEDTAVYYCAADEGRVFSGGYDYWGQGTQVTVSS,high polyreactivity
9,QVQLVESGGGLVQAGGSLRLSCAASGILFYLNAMGWYRQAPGKERELVASISTGGGTNYADSVKGRFTISRDYAKNTVYLQMNSLKPEDTAFYYCAAKRRNTYTLYYYWGQGTQVTVSS,high polyreactivity
10,QVQLVESGGGLVQAGGSLRLSCAASGRIYYSNVMGWYRQAPGTERELVAAISGRTGGTYYADSVKGRFTISRDNAKNTVYLQMNSLKPEDTAVYYCAARVIYYYGYCTYDYWGQGTQVTVSS,low polyreactivity
11,QVQLVESGGGLVQAGGSLRLSCAASGRTFWFNAMGWYRQAPGKERELVASITLSGGSTYYADSVKGRFTISRDNAKITVYLQMNSLKPEDTAVYYCAADQTVHISSYDYWGQGTQVTVSS,low polyreactivity
12,QVQLVESGGGLVQAGGSLRLSCAASGIIFYVYALGWYRQAPGKERELVAAISYTSSTYADSVKGLFTISRDNAKNTVYLQMNSLKPEDTAVYYCNTDYSDGYPAFDFWGQGTQVTVSS,low polyreactivity
13,QVQLVESGGGLVQAGGSLRLSCAASGFTFRYYAMGWYRQAPGKERELVAGISWSGSRTYYADSVKGRFTISRDNAKNTVYLQMNSLKPEDTAVYYCAKVNSYGPVPDRYDYWGQGTQVTVSS,high polyreactivity
14,QVQLVESGGGLVQAGGSLRLSCAASGNIFLYYAMGWSRQAPGKERELVADIDSSGASTYYADSVKGRFTISRDNAKNNVYLQMNSLKPEDTAVYYCAAEFHWWYAGYDYGYWGQGTQVTVSS,low polyreactivity
15,QVQLGESGGGLVQAGGSLRLSCAAAGFIFRPYAMGWYRQAPGKERELVAVISNSGGSSNYADSVKGRFSISRENAKNTVYLQMNSLKPEDTAVDYCNALVYVPHWWTYYDWGQGTQVTVSS,high polyreactivity
16,QVQLVESGGGLVQAGGSLRLICAASGITFPSNTMGWYRQAPGKERELVAAITRGDNTYYADSVKGRFTISRDNAKNTVYLQMNSLKPEYTAVYYCATEGYQIQYEHDYWGQGTIVTVSS,low polyreactivity
17,QVQLVESVGGLVQAGGSLRFSCAASGFIFNYNALGWYRQAPGTERELVAAISGTGVRTYYADSVKGRFTISRDNAKNTVYLQMNSLKPEDTAVYYCNAYYGYIPVSGYRNDYWGQGTQVTVSS,low polyreactivity
